Results on two molecules are retold here after paper PMC6779467, “Cytoplasmic protein misfolding titrates Hsp70 to activate nuclear Hsf1” (eLife, 2019).

B1: Hsf1-StrepTag II (natural protein, S. cerevisiae, UniProt P10961 1-833, looked up)
chain: MNNAANTGTTNESNVSDAPRIEPLPSLNDDDIEKILQPNDIFTTDRTDASTTSSTAIEDIINPSLDPQSAASPVPSSSFFHDSRKPSTSTHLVRRGTPLGIYQTNLYGHNSRENTNPNSTLLSSKLLAHPPVPYGQNPDLLQHAVYRAQPSSGTTNAQPRQTTRRYQSHKSRPAFVNKLWSMLNDDSNTKLIQWAEDGKSFIVTNREEFVHQILPKYFKHSNFASFVRQLNMYGWHKVQDVKSGSIQSSSDDKWQFENENFIRGREDLLEKIIRQKGSSNNHNSPSGNGNPANGSNIPLDNAAGSNNSNNNISSSNSFFNNGHLLQGKTLRLMNEANLGDKNDVTAILGELEQIKYNQIAISKDLLRINKDNELLWQENMMARERHRTQQQALEKMFRFLTSIVPHLDPKMIMDGLGDPKVNNEKLNSANNIGLNRDNTGTIDELKSNDSFINDDRNSFTNATTNARNNMSPNNDDNSIDTASTNTTNRKKNIDENIKNNNDIINDIIFNTNLANNLSNYNSNNNAGSPIRPYKQRYLLKNRANSSTSSENPSLTPFDIESNNDRKISEIPFDDEEEEETDFRPFTSRDPNNQTSENTFDPNRFTMLSDDDLKKDSHTNDNKHNESDLFWDNVHRNIDEQDARLQNLENMVHILSPGYPNKSFNNKTSSTNTNSNMESAVNVNSPGFNLQDYLTGESNSPNSVHSVPSNGSGSTPLPMPNDNDTEHASTSVNQGENGSGLTPFLTVDDHTLNDNNTSEGSTRVSPDIKFSATENTKVSDNLPSFNDHSYSTQADTAPENAKKRFVEEIPEPAIVEIQDPTEYNDHRLPKRAKK
notes: Hsf1, S. cerevisiae; HSF1 amplified with primers from the start codon to the last codon before the tag; also called Heat shock factor 1; yeast Hsf1; source: E. coli BL21-SI/pCodonPlus with pCA1026, coexpressed with 6xHis-SUMO-Ssa1 and Sis1; purified (Ni-IDA, Strep-Tactin Sepharose); not shown: Strep Tag II, C-terminal, kept

Data set [1] deals with the molecule itself. Description: SEC; 500 ul of 2 mg/ml purified complex on HiLoad 16/600 Superdex200 pg, 1 mL/min, LWB150.
The target in the data set “Hsf1-StrepTag II” is B1. Briefly: pull-down; coexpression in E. coli; tandem affinity purification: Ni-IDA (6xHis-SUMO on Ssa1), Ulp1 cleavage, Strep-Tactin Sepharose (StrepTag II on Hsf1), elution with desthiobiotin; LWB150 (40 mM HEPES-KOH pH 7.5, 150 mM NaCl, 5 mM MgCl2, 5% glycerol); stoichiometry by densitometry of a Coomassie stained gel. As to conditions: partners not purified.

For the molecule B1, in data set [1], the binding result is “binds”.

B2: Ssa1 (6xHis-SUMO tag cleaved with Ulp1) (natural protein)
chain: not shown
notes: Hsp70 Ssa1, S. cerevisiae; Same construct as m2 after cleavage of the tag with Ulp1 SUMO protease; also called Hsp70; Hsp70 Ssa1; source: E. coli BL21-SI/pCodonPlus with pCA1026, coexpressed with Hsf1-StrepTag II and Sis1; purified (Ni-IDA, Ulp1 cleavage, Strep-Tactin Sepharose through Hsf1); not shown: 6xHis-SUMO, N-terminal, cleaved
For orientation: stoichiometry N means the number of molecules, sites or subunits per partner or assembly. As for B2, the “stoichiometry N” value in the data set with Hsf1-StrepTag II was found to be 3 Hsf1 per Ssa1.
